Test results from paper PMC10786891, “Massively parallel profiling of RNA-targeting CRISPR-Cas13d”.

B1: target 2 MT 5'PFS AUU 3'PFS CGU (mixed)
RNA 1: CACCCGUGCAAAAUUGCAGGGGUCUAAAACCUUCUCCAAAUUGUUUCAUCCU
RNA 2: GGGAAUGGAUCCACAUCUACGAAUUCAUUAGGAUGAAACAAUUUGGAGAAGCGUAGAUCGGAAGAGCACACGU
B2: target 2 MT 5'PFS AUG 3'PFS CAA (mixed)
RNA 1: CACCCGUGCAAAAUUGCAGGGGUCUAAAACCUUCUCCAAAUUGUUUCAUCCU
RNA 2: GGGAAUGGAUCCACAUCUACGAAUUCAUGAGGAUGAAACAAUUUGGAGAAGCAAAGAUCGGAAGAGCACACGU
B3: target 2 MT 5'PFS AUU 3'PFS UCG (mixed)
RNA 1: CACCCGUGCAAAAUUGCAGGGGUCUAAAACCUUCUCCAAAUUGUUUCAUCCU
RNA 2: GGGAAUGGAUCCACAUCUACGAAUUCAUUAGGAUGAAACAAUUUGGAGAAGUCGAGAUCGGAAGAGCACACGU
B4: target 2 MT 5'PFS AAA 3'PFS UUA (mixed)
RNA 1: CACCCGUGCAAAAUUGCAGGGGUCUAAAACCUUCUCCAAAUUGUUUCAUCCU
RNA 2: GGGAAUGGAUCCACAUCUACGAAUUCAAAAGGAUGAAACAAUUUGGAGAAGUUAAGAUCGGAAGAGCACACGU
B5: target 2 MT 5'PFS CCG 3'PFS CCU (mixed)
RNA 1: CACCCGUGCAAAAUUGCAGGGGUCUAAAACCUUCUCCAAAUUGUUUCAUCCU
RNA 2: GGGAAUGGAUCCACAUCUACGAAUUCCCGAGGAUGAAACAAUUUGGAGAAGCCUAGAUCGGAAGAGCACACGU
B6: target 2 MT 5'PFS AGC 3'PFS CCG (mixed)
RNA 1: CACCCGUGCAAAAUUGCAGGGGUCUAAAACCUUCUCCAAAUUGUUUCAUCCU
RNA 2: GGGAAUGGAUCCACAUCUACGAAUUCAGCAGGAUGAAACAAUUUGGAGAAGCCGAGAUCGGAAGAGCACACGU
B7: target 2 MT 5'PFS AAU 3'PFS CAC (mixed)
RNA 1: CACCCGUGCAAAAUUGCAGGGGUCUAAAACCUUCUCCAAAUUGUUUCAUCCU
RNA 2: GGGAAUGGAUCCACAUCUACGAAUUCAAUAGGAUGAAACAAUUUGGAGAAGCACAGAUCGGAAGAGCACACGU
B8: target 2 MT 5'PFS AAU 3'PFS CAA (mixed)
RNA 1: CACCCGUGCAAAAUUGCAGGGGUCUAAAACCUUCUCCAAAUUGUUUCAUCCU
RNA 2: GGGAAUGGAUCCACAUCUACGAAUUCAAUAGGAUGAAACAAUUUGGAGAAGCAAAGAUCGGAAGAGCACACGU
B9: target 2 MT 5'PFS AGC 3'PFS CCA (mixed)
RNA 1: CACCCGUGCAAAAUUGCAGGGGUCUAAAACCUUCUCCAAAUUGUUUCAUCCU
RNA 2: GGGAAUGGAUCCACAUCUACGAAUUCAGCAGGAUGAAACAAUUUGGAGAAGCCAAGAUCGGAAGAGCACACGU
B10: target 1 insU 3' of 2,insA 3' of 2 (mixed)
RNA 1: CACCCGUGCAAAAAUGCAGGGGUCUAAAACUGAGCGGAUAACCUCUCUAUGG
RNA 2: GGGAAUGGAUCCACAUCUACGAAUUCGUACCAUAGAGAGGUUAUCCGCUCUAACCGAGAUCGGAAGAGCACACGU
B11: target 1 insC 3' of 17,insC 3' of 15 (mixed)
RNA 1: CACCCGUGCAAAAAUGCAGGGGUCUAAAACUGAGCGGAUAACCUCUCUAUGG
RNA 2: GGGAAUGGAUCCACAUCUACGAAUUCGUACCAUAGCAGCAGGUUAUCCGCUCACCGAGAUCGGAAGAGCACACGU
B12: target 2 MT 5'PFS GUU 3'PFS CCG (mixed)
RNA 1: CACCCGUGCAAAAUUGCAGGGGUCUAAAACCUUCUCCAAAUUGUUUCAUCCU
RNA 2: GGGAAUGGAUCCACAUCUACGAAUUCGUUAGGAUGAAACAAUUUGGAGAAGCCGAGAUCGGAAGAGCACACGU
B13: target 2 MT 5'PFS GGG 3'PFS UCU (mixed)
RNA 1: CACCCGUGCAAAAUUGCAGGGGUCUAAAACCUUCUCCAAAUUGUUUCAUCCU
RNA 2: GGGAAUGGAUCCACAUCUACGAAUUCGGGAGGAUGAAACAAUUUGGAGAAGUCUAGAUCGGAAGAGCACACGU
B14: target 2 MT 5'PFS GUU 3'PFS CCA (mixed)
RNA 1: CACCCGUGCAAAAUUGCAGGGGUCUAAAACCUUCUCCAAAUUGUUUCAUCCU
RNA 2: GGGAAUGGAUCCACAUCUACGAAUUCGUUAGGAUGAAACAAUUUGGAGAAGCCAAGAUCGGAAGAGCACACGU
B15: target 2 MT 5'PFS UAG 3'PFS CCC (mixed)
RNA 1: CACCCGUGCAAAAUUGCAGGGGUCUAAAACCUUCUCCAAAUUGUUUCAUCCU
RNA 2: GGGAAUGGAUCCACAUCUACGAAUUCUAGAGGAUGAAACAAUUUGGAGAAGCCCAGAUCGGAAGAGCACACGU
B16: target 2 MT 5'PFS AAU 3'PFS CAU (mixed)
RNA 1: CACCCGUGCAAAAUUGCAGGGGUCUAAAACCUUCUCCAAAUUGUUUCAUCCU
RNA 2: GGGAAUGGAUCCACAUCUACGAAUUCAAUAGGAUGAAACAAUUUGGAGAAGCAUAGAUCGGAAGAGCACACGU
B17: target 2 MT 5'PFS GGG 3'PFS UCG (mixed)
RNA 1: CACCCGUGCAAAAUUGCAGGGGUCUAAAACCUUCUCCAAAUUGUUUCAUCCU
RNA 2: GGGAAUGGAUCCACAUCUACGAAUUCGGGAGGAUGAAACAAUUUGGAGAAGUCGAGAUCGGAAGAGCACACGU
B18: target 2 MT 5'PFS AUU 3'PFS UCA (mixed)
RNA 1: CACCCGUGCAAAAUUGCAGGGGUCUAAAACCUUCUCCAAAUUGUUUCAUCCU
RNA 2: GGGAAUGGAUCCACAUCUACGAAUUCAUUAGGAUGAAACAAUUUGGAGAAGUCAAGAUCGGAAGAGCACACGU
B19: target 2 MT 5'PFS GGG 3'PFS UCC (mixed)
RNA 1: CACCCGUGCAAAAUUGCAGGGGUCUAAAACCUUCUCCAAAUUGUUUCAUCCU
RNA 2: GGGAAUGGAUCCACAUCUACGAAUUCGGGAGGAUGAAACAAUUUGGAGAAGUCCAGAUCGGAAGAGCACACGU
B20: target 2 MT 5'PFS GGG 3'PFS UCA (mixed)
RNA 1: CACCCGUGCAAAAUUGCAGGGGUCUAAAACCUUCUCCAAAUUGUUUCAUCCU
RNA 2: GGGAAUGGAUCCACAUCUACGAAUUCGGGAGGAUGAAACAAUUUGGAGAAGUCAAGAUCGGAAGAGCACACGU
B21: target 2 MT 5'PFS GAA 3'PFS CAU (mixed)
RNA 1: CACCCGUGCAAAAUUGCAGGGGUCUAAAACCUUCUCCAAAUUGUUUCAUCCU
RNA 2: GGGAAUGGAUCCACAUCUACGAAUUCGAAAGGAUGAAACAAUUUGGAGAAGCAUAGAUCGGAAGAGCACACGU
B22: target 1 A1G,C6G (mixed)
RNA 1: CACCCGUGCAAAAAUGCAGGGGUCUAAAACUGAGCGGAUAACCUCUCUAUGG
RNA 2: GGGAAUGGAUCCACAUCUACGAAUUCGUACCAUAGAGAGGUUAUCGGCUCGCCGAGAUCGGAAGAGCACACGU
B23: target 2 MT 5'PFS GCG 3'PFS CGU (mixed)
RNA 1: CACCCGUGCAAAAUUGCAGGGGUCUAAAACCUUCUCCAAAUUGUUUCAUCCU
RNA 2: GGGAAUGGAUCCACAUCUACGAAUUCGCGAGGAUGAAACAAUUUGGAGAAGCGUAGAUCGGAAGAGCACACGU
B24: target 2 MT 5'PFS AAU 3'PFS ACA (mixed)
RNA 1: CACCCGUGCAAAAUUGCAGGGGUCUAAAACCUUCUCCAAAUUGUUUCAUCCU
RNA 2: GGGAAUGGAUCCACAUCUACGAAUUCAAUAGGAUGAAACAAUUUGGAGAAGACAAGAUCGGAAGAGCACACGU
B25: target 2 MT 5'PFS CAU 3'PFS AUU (mixed)
RNA 1: CACCCGUGCAAAAUUGCAGGGGUCUAAAACCUUCUCCAAAUUGUUUCAUCCU
RNA 2: GGGAAUGGAUCCACAUCUACGAAUUCCAUAGGAUGAAACAAUUUGGAGAAGAUUAGAUCGGAAGAGCACACGU
B26: target 2 MT 5'PFS UCA 3'PFS CUU (mixed)
RNA 1: CACCCGUGCAAAAUUGCAGGGGUCUAAAACCUUCUCCAAAUUGUUUCAUCCU
RNA 2: GGGAAUGGAUCCACAUCUACGAAUUCUCAAGGAUGAAACAAUUUGGAGAAGCUUAGAUCGGAAGAGCACACGU
B27: target 2 MT 5'PFS GAA 3'PFS CAC (mixed)
RNA 1: CACCCGUGCAAAAUUGCAGGGGUCUAAAACCUUCUCCAAAUUGUUUCAUCCU
RNA 2: GGGAAUGGAUCCACAUCUACGAAUUCGAAAGGAUGAAACAAUUUGGAGAAGCACAGAUCGGAAGAGCACACGU
B28: target 2 MT 5'PFS CAG 3'PFS ACA (mixed)
RNA 1: CACCCGUGCAAAAUUGCAGGGGUCUAAAACCUUCUCCAAAUUGUUUCAUCCU
RNA 2: GGGAAUGGAUCCACAUCUACGAAUUCCAGAGGAUGAAACAAUUUGGAGAAGACAAGAUCGGAAGAGCACACGU

target: T1, EsCas13d, nuclease-dead (Eubacterium siraeum, UniProt B0MS50, R295A;H300A;R849A;H854A); assay: crRNA (strand 1, pre-loaded); Mg2+; 40 mM Tris-HCl pH 7.5, 150 mM NaCl, 6 mM MgCl2, 1 mM DTT, 0.1% Tween-20, 0.2 mg/ml BSA; 25 C; 10 min per concentration, then washed; conditions: tags: His6-TwinStrep-SUMO cleaved; N-terminal SNAP kept (SNAP-Surface 488); label: 3' end held by stalled T7 RNA polymerase
T1 sequence: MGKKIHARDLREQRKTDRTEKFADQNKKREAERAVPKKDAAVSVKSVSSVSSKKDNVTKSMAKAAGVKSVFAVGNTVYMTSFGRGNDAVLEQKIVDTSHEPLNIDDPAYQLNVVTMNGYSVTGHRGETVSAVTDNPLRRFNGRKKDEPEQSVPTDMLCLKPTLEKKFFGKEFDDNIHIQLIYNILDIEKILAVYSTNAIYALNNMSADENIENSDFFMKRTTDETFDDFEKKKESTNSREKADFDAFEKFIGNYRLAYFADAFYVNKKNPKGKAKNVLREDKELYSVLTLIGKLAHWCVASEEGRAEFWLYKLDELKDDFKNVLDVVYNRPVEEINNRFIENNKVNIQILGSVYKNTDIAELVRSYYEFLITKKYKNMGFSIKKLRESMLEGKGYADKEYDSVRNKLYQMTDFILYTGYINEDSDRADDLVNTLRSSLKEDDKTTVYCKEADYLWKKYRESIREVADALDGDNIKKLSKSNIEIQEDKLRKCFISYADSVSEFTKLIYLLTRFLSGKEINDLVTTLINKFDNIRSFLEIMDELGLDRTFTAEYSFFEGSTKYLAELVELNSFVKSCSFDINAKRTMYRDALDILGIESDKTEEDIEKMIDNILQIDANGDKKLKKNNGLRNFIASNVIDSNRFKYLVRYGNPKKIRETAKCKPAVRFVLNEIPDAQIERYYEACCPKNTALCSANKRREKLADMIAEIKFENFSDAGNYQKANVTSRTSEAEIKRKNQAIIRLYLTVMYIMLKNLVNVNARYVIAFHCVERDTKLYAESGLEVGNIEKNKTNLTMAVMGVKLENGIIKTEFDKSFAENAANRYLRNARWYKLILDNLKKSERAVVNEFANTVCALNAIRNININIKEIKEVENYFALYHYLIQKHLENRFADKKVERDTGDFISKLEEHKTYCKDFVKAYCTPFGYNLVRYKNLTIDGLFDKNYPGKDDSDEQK

In order of rising Kd:
1. B16  3 ± 0.6 nM
2. B25  4.1 ± 0.6 nM
3. B8  4.3 ± 0.7 nM
4. B26  5 ± 0.9 nM
5. B7  5.2 ± 1 nM
6. B28  5.3 ± 2.1 nM
7. B4  5.6 ± 1.5 nM
8. B1  6.9 ± 0.9 nM
9. B18  7 ± 0.8 nM
10. B27  7 ± 1.5 nM
11. B22  7.3 ± 0.4 nM
12. B24  7.5 ± 1.3 nM
13. B3  7.8 ± 0.7 nM
14. B5  8.4 ± 1.6 nM
15. B21  8.6 ± 1.7 nM
16. B2  9 ± 1.4 nM
17. B6  9.3 ± 1 nM
18. B10  10.9 ± 0.5 nM
19. B20  11.3 ± 1.5 nM
20. B17  11.5 ± 0.8 nM
21. B13  12.1 ± 0.8 nM
22. B12  14.3 ± 1.2 nM
23. B23  14.4 ± 3 nM
24. B15  24 ± 9 nM
25. B11  38 ± 6 nM
26. B19  52 ± 14 nM
27. B9  78 ± 32 nM
28. B14  ~90 nM
